Publication PMC3568146, “Very Late Antigen-4 (α4β1 Integrin) Targeted PET Imaging of Multiple Myeloma” (PLoS ONE, 2013)
Entries after “also recorded” stand apart in the source; their conditions may differ. Read-outs that look alike come from different tables or passages of the source.

Legend:
RPMI-8226 cells = assay: In vitro cell uptake assay, RPMI-8226 cells; format: cell-based, human; conditions: 0.1 nM tracer, 37°C, 60 min, 1 mM Mn2+, ~200-fold excess LLP2A, P<0.0001
Method: (§1) Cell uptake assays were performed in murine 5TGM1 and human RPMI-8226 myeloma cells using ^64Cu-CB-TE1A1P-LLP2A to determine the sum of cell internalized and surface-bound fractions. Cells were grown in Iscoves MDM until 60−75% confluent, harvested by mechanical dissociation, and re-suspended in the binding medium (phosphate buffered saline [PBS], 0.1% bovine serum albumin [BSA] and 1 mM Mn^2+) in 1.5 mL microfuge tubes. A solution of ^64Cu-CB-TE1A1P-LLP2A (0.1 nM) was added to the cell suspension. The samples were incubated for 60 min in a cell incubator (37°C, 5% CO2). To determine the in vitro VLA-4 binding specificity of ^64Cu-CB-TE1A1P-LLP2A, samples were co-incubated with ∼200-fold excess of the unlabeled ligand, LLP2A. After incubation, the samples were centrifuged at 1,500 rpm for 5 min, and the radioactive medium was removed. Cell pellets were rinsed with ice cold binding buffer (500 µL) and centrifuged at 1,500 rpm for 3 min (2 X). The radioactivity in cell pellets was measured in a well counter (Packard II gamma counter).
Binding of ^64Cu-CB-TE1A1P-LLP2A was evaluated in human MM cell line RPMI-8226 in vitro.

[1] = biological target: T1, VLA-4 (α4β1 integrin) on 5TGM1 murine myeloma cells (Mus musculus, UniProt P09055+Q00651); assay: In vitro saturation binding assay on 5TGM1 whole cells; conditions: tracer 0.5–15.5 nM, 2 h at 4°C, 1 mM Mn2+, N = 3
T1 construct: was incubated with ∼250,000 5TGM1 (∼ 0.41 mg protein) whole cells; endogenous in cells; host or cells: 5TGM1 murine myeloma cells (whole cells)
Method: For saturation binding experiments, ^64Cu-CB-TE1A1P-LLP2A (0.5–15.5 nM) was incubated with ∼250,000 5TGM1 (∼ 0.41 mg protein) whole cells in 1.5 mL microfuge tubes for 2 h at 4°C in a total volume of 500 µL of binding medium (phosphate buffered saline [PBS], 0.1% bovine serum albumin [BSA] and 1 mM Mn^2+). The reaction tubes were put on a slow moving rotor during the 4°C incubation. After the incubation, samples were centrifuged at 1,500 rpm for 5 min, reaction buffer was removed by vacuum aspiration and the cells were washed two times with ice cold PBS. Non-specific binding was determined by conducting the assay in the presence of an excess (∼200 fold) unlabeled LLP2A. The radioactivity in the cell pellets was measured in a well counter (Packard II gamma counter). The specific binding was obtained by the subtraction of non-specific binding from total binding. The dissociation constant (Kd) and receptor density (Bmax) were estimated from the non-linear fitting of the specific binding versus the concentration of ^64Cu-CB-TE1A1P-LLP2A using Prism software (GraphPad, San Diego, CA).
The in vitro binding affinity of ^64Cu-CB-TE1A1P-LLP2A was investigated by determining the equilibrium dissociation constant (Kd) and the maximum specific binding (Bmax) of the radiolabeled conjugate to 5TGM1 cells in saturation binding assays. […]

5TGM1 cells = assay: In vitro cell uptake assay, 5TGM1 cells; format: cell-based, mouse
Method: as §1

[2] = Tissue biodistribution in 5TGM1 tumor-bearing KaLwRij mice; format: in vivo, mouse; conditions: mouse, iv, 0.01 ug, total radioactivity, 2 h post injection, s.c. 5TGM1 tumor KaLwRij mice, mean±SD, N = 4
Method: (§2) KaLwRij mice (from Dr. Claire M. Edwards, Vanderbilt University Medical Center Cancer Biology, Nashville, TN) were housed in ventilated cage racks and allowed food and water. 5TGM1 cells in log phase growth were prepared for injection by precipitation in a centrifuge followed by a wash step with sterile endotoxin-free PBS. Finally, the cells were re-suspended in endotoxin-free PBS at a concentration of 1×10^6 cells/mL and injected with or without matrigel, respectively, in the nape of the neck subcutaneously (s.c.) or intraperitoneally (i.p.) in a 100 µL volume in 3–5 week old mice. The tumors were allowed to grow for an average of 10 d.
(§3) 5TGM1 tumor bearing mice were sacrificed at 2 or 24 h after the injection of the radiopharmaceutical, ^64Cu-CB-TE1A1P-LLP2A. Blood, marrow, fat, heart, stomach, intestines, lungs, liver, spleen, kidneys, muscle, bone, pancreas, and tumor were harvested, weighed, and counted in the γ-counter. For the in vivo blocking studies, an additional group of mice was injected with the radiopharmaceutical premixed with ∼200-fold excess of LLP2A to serve as a blocking agent and sacrificed at the respective time point. The percent injected dose per gram of tissue (%ID/g) was determined by decay correction of the radiopharmaceutical for each sample normalized to a standard of known weight, which was representative of the injected dose.
(§4) Figure 3 Tissue biodistribution of ^64Cu-CB-TE1A1P-LLP2A in 5TGM1 s.c. tumor mice. Biodistribution of ^64Cu-CB-TE1A1P-LLP2A in 5TGM1 s.c. tumor mice (black bars). The open bars represent biodistribution in the presence of non-radioactive blocking agent (∼ 200 fold excess LLP2A). Mice were injected with ^64Cu-CB-TE1A1P-LLP2A (0.01 µg, 0.2 MBq, SA: 37 MBq/µg) and sacrificed at 2 h post injection. N = 4 mice/group.

5TGM1 tumors [3] = assay: as above; format: in vivo, mouse; conditions: 2 h, co-administered ~200-fold excess cold LLP2A, p<0.05, N = 4
Method: as §2, §3, §4

[4] = Small animal PET/CT imaging in KaLwRij mice bearing 5TGM1 tumors; format: in vivo, mouse; conditions: KaLwRij, mouse, iv, total radioactivity
Method: as §2
(§5) Prior to small animal PET/CT imaging, mice were injected intravenously (tail vein) with ^64Cu-CB-TE1A1P-LLP2A (0.9 MBq (SA: 37 MBq/µg)). At 2 h post injection, mice were anaesthetized with 1–2% isoflurane and imaged with small animal PET (Focus 220 or Inveon (Siemens Medical Solutions, Knoxville,TN)), while the CT images were acquired with the Inveon. Static images were collected for 30 min and co-registered using the Inveon Research Workstation (IRW) software (Siemens Medical Solutions, Knoxville,TN). PET images were re-constructed with the maximum a posteriori (MAP) algorithm. The analysis of the small animal PET images was done using the IRW software. Regions of interest (ROI) were selected from PET images using CT anatomical guidelines and the activity associated with them was measured with IRW software. Maximum standard uptake values (SUVs) for both experiments were calculated using SUV = ([nCi/mL]x[animal weight (g)]/[injected dose (nCi)]). A set of mice was also imaged at 24 h post injection.
(§6) To test the ability of ^64Cu-CB-TE1A1P-LLP2A to image MM, small animal PET/CT imaging was conducted in KaLwRij mice bearing 5TGM1 murine myeloma tumors. The following i.p. and s.c. 5TGM1 models were used for the proof-of-principle imaging studies: 1) a non-matrigel assisted s.c. (plasmacytoma) tumor in the flank of the mouse (Figure 4B); 2) a matrigel assisted s.c. tumor in the flank of the mouse (Figure 4C); and 3) tumor cells injected in the peritoneal (i.p.) cavity (Figure 4D). Figure 4 contains […] (B-D) representative maximum intensity projection (MIP) small animal PET images using ^64Cu-CB-TE1A1P-LLP2A (0.9 MBq, 0.05 µg, 27 pmol, SA: 37 MBq/µg) at 2 h post injection in the various models compared to a non-tumor-bearing control mouse (Figure 4A). […] The SUV of the tumor shown in Figure 4D was not determined due to the large tumor size and overlap with the spleen and bladder. The heterogeneous distribution of the imaging agent in Figure 4D likely corresponds with the heterogeneity of the tumor mass. The uptake of ^64Cu-CB-TE1A1P-LLP2A in i.p. tumors was determined to be 14.9±2.6%ID/g by post PET biodistribution (2 h post injection). […] We are currently investigating the imaging of myeloma induced spleen pathology (splenomegaly) in orthotopic (i.v.) 5TGM1 mouse models of MM.

5TGM1 tumors [5] = assay: as above; format: in vivo, mouse; conditions: 2 h post injection
Method: as §2, §5, §6

T1 sequence (Q00651 41-1039): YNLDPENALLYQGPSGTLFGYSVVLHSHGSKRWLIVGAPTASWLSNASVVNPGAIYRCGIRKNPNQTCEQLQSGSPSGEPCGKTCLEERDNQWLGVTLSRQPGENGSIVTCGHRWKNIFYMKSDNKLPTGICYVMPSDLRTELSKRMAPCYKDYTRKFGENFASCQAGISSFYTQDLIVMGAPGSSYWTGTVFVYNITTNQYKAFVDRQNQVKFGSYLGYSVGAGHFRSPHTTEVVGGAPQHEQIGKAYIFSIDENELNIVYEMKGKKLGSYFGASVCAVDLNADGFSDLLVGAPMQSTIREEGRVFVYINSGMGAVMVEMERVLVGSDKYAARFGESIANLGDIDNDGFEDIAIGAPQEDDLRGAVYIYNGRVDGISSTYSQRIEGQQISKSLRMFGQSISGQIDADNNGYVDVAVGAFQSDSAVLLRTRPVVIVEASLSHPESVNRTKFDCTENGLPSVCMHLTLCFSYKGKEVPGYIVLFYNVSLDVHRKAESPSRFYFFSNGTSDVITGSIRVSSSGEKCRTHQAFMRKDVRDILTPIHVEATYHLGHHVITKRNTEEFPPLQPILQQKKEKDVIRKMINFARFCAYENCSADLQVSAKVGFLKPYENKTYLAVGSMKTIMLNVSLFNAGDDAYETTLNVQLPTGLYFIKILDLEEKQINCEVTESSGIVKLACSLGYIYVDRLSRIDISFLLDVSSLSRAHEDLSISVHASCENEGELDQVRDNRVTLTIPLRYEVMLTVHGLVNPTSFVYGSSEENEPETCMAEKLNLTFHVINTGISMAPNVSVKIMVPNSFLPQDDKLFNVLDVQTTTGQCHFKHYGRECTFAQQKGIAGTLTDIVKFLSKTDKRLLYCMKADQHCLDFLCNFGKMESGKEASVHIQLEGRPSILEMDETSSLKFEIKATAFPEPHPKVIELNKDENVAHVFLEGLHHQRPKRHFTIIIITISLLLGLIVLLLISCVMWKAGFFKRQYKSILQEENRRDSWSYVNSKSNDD
T1 sequence (P09055 21-798): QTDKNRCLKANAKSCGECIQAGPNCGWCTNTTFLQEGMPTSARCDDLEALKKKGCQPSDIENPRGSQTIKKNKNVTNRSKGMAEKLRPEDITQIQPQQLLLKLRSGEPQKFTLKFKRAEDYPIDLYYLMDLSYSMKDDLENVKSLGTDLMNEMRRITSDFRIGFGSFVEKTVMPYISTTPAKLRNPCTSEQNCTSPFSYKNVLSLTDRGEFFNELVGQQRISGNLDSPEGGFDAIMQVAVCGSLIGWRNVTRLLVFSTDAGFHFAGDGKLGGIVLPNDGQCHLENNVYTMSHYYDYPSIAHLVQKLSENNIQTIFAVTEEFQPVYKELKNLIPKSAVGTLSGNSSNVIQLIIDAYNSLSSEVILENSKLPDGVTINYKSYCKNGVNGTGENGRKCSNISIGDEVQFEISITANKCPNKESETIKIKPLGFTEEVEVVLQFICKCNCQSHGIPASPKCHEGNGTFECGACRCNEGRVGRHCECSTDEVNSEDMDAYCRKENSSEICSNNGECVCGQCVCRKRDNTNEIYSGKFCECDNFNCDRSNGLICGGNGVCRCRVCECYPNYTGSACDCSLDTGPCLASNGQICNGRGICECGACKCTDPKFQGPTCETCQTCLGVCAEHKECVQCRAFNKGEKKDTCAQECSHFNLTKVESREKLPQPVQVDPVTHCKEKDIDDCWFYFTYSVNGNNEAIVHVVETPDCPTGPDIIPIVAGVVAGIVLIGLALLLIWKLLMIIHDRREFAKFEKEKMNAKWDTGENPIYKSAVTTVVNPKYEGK

## Cc1ccccc1NC(=O)Nc1ccc(CC(=O)N[C@@H](CCCCNC(=O)/C=C/c2cccnc2)C(=O)N[C@@H](CCCC(=O)O)C(=O)NC2(C(=O)NCCOCCOCCNC(=O)CCC(=O)NCCOCCOCCNC(=O)CCC(=O)N[C@@H](CCCCNC(=O)CN3CCCN4CCN(CCCN(CP(=O)(O)O)CC4)CC3)C(N)=O)CCCCC2)cc1 [64Cu-CB-TE1A1P-LLP2A, metal not drawn]
RPMI-8226 cells
  Cell uptake in RPMI-8226 cells, with vs. without excess LLP2A: significantly reduced; also recorded: significantly blocked
[1]
  Bmax (maximum specific binding, receptor density): 136 pmol/mg
5TGM1 cells; 0.1 nM tracer, 60 min, 37°C, PBS/0.1% BSA/1 mM Mn2+, with and without ~200-fold excess LLP2A, P<0.0001
  Cell uptake (internalized + surface-bound), block vs. non-block: receptor specific uptake; also recorded: significantly different; also recorded: significantly reduced
5TGM1 cells; without Mn2+, data not shown
  Cell uptake in the absence of receptor activating cation Mn2+: much lower binding
[2]; i.v., 0.01 µg, 0.2 MBq, read-out: Tumor uptake (s.c. 5TGM1)
  tissue uptake at 2 h: 12 ± 4.5 %ID/g
[2]; spleen, read-out: Spleen uptake
  tissue uptake at 2 h: 8.8 ± 1 %ID/g
5TGM1 tumors [3]
  Uptake in tumor, spleen and bone in the presence of blocking agent: significantly reduced
[4]; spleen, 0.05 ug, 2 h post injection, 5TGM1 tumor bearing mice, read-out: Spleen SUV, tumor bearing mice
  SUV at 2 h: 3.3 SUV
[4]; tumor and muscle, 0.9 MBq, 2 h post injection, calculated from MIP image SUVs
  tissue to tissue ratio at 2 h: 28 ± 6
[4]; tumor and muscle, 0.9 MBq, 24 h post injection, calculated from MIP image SUVs
  tissue to tissue ratio at 24 h: 161 ± 41
[4]; tumor, 0.05 ug, 2 h post injection, 0.9 MBq, 0.05 µg, 27 pmol, 5TGM1 tumors, mean±SD, N = 4, read-out: Tumor SUV (averaged maximum SUV from MIP PET images), no block
  SUV at 2 h: 6.2 ± 1.1 SUV
[4]; tumor, 2 h post injection, ~200-fold excess LLP2A, mean±SD, N = 4, P<0.05, read-out: Tumor SUV in the presence of blocking agent
  SUV at 2 h: 2.3 ± 0.4 SUV
5TGM1 tumors [5]; non-tumor KaLwRij control mouse
  Spleen SUV, non-tumor bearing mouse: 2.2
5TGM1 tumors [5]; ~200-fold excess LLP2A, P<0.05
  Reduction in tumor SUV in the presence of blocking agent: 3 fold
5TGM1 tumors [5]; representative mouse, Figure 4B
  Tumor SUV, early stage non-palpable s.c. 5TGM1 tumor without matrigel: 2.24
5TGM1 tumors [5]; representative mouse, Figure 4C
  Tumor SUV, matrigel assisted s.c. 5TGM1 tumor: 6.2
